A protein production outcome set (Wang et al. 2014)

Assay: label from the status in PepcDB records

Row | Sequence | protein production
1 | KLKISEASLEDYSEVVHLFNRNHVYQFPDGRPLTVDDLDLTLKVKEVTHLFLLKNHGVLIGTSAFFKFITYGCLDWNSSFSGFLLIDSKSRSGQAITYLYKTILKKITKLKFSNIYTEISNYNKPSLALSKLNGFKEYDKTYEDILHCRSLRSHL | failed
2 | MEVYSMNFALGVILAFSAAFTWALTSVLSKVSMRRVSPLTLNFLRLVIASGFYLPLIIYLNLIPSKGIMWWVIVVFSGIIGFMIGDWLFLEGMKLLGVSRANMLTTLHPIITMVLAHYLLGRPLNAYLFLGAGLIILAVLLLLSEKSESGGINARGVLLVVVAELLWTIAILITDWLVSNEPPVLIAALRISSGILGGLPFLPKMWREIRKLRLGDMGLVFVISLLGTIVGQYLFIKSISLVSSTVATPVTESTPIMASLLAVVFLREKITSKLVASMMLSFIGILIIGVLG | failed
3 | MAHGPTRQKITLTTEVAAEPAEVWARIGDFQDMSWHPAVHSSTGENGNEIDATRVLSLGAADGPTISEILYKYSDEKMSYSYRITDVLVEVLPVTNYSSHLTVKARDGGGSVIEWRGAFYRGYPNNDPPEDLEHHHHHH | failed
4 | MTTTLSPDTARQIVPPEERYAAELAFLAAYDDGPRPPAWRLTPRAVVTFVMGSDGRALRLPEGAETPEGVPRRLTVEGKFVGDRSLVERCVVTLAGERGLLLVGEPGTAKSMLSELLSAAVCGTSGLVVQGTAGTTEDQLKYGWNYALLLAQGPSRTALVPSPVLTAMARGGIARVEEVTRCLPEVQDALVSLLSERRIAVPELSGTDDALAHAAPGFNLIATANLRDKGVSEMSAALKRRFNFETVGPIPDLDAETALVRSQARASVERAGAPFKVDEAVLEALVVAFRDLREGRSTEGWEVERPSTVMSTAEAVSVAGALGLAAAYFPGDRDVLGLLPGHLLGVVRKDDPADAARLRGYWDGPVRRRAEQGSATWRTLWDLRTVLEGLEHHHHHH | failed
5 | MTKLSDRLMEIYRLINQAARVADIGTDHAAIPIALLETNKSSFLVATDIGLGPLEKAKEQIELADLDQAKQIVLRLGDGLSVIKASDKIDTVVIAGMGGELIAKIISKIPDYLKNAKFILQPNNEEIDVRKAIEKNGQYIETEKIIYENRHFYEIIVAKRSQQGIVKMTNRELRFGPCLLKHRTSTFKNKWQERLDHSKQIEKILEKSLRTSTKRYDSLQAEIKTIEEALK | not failed
6 | MRIHDIDPDNRPRERFLRSGKESLSPAELLALILRSGTAGLNIIDTCNKLISEHGLERLADLSIQELQKTPGIGEAKAMQIAAIFELQRRLHFARNMNLKVKGARDVFEYMKGRIPDETKEHLFVLFLSTKNQILRHETITIGTLTASLIHPREIFKAAIRESAHSIILVHNHPSGDVQPSNADKQVTSILKKAGDLLQIELLDHVIVGNNDWFSFRDHALL | failed
7 | MNSIEKELDCGRSVTDQQKIEEVTRQITEHGNELRRRYPVLNYQNALGASAMAVSVTVMVVTGVLYVKGIMPAWLCILVNALSTSIIHELEHDLIHRLYFRKQPLAHNFMMLLCWLTRPGMPSPWLRRGLHFHHHKESGTATDVEAWITTSGNPWGILRLLKLMDGFLFGFVNAVCAPGWRQKMKLLARIIRLNTPFGLLYWGSWYVFLGYHLSTWLGGLAGVPPPSSPLMLQVMNMIDCVVVIVVAPNMIRQFCLYFISSNMHYYGDVAPRNALQQTQVMNHWLLWPFQLFCFNFGSTHSIHHFVVKDPFYLRQMTAPYAHEVMAKAGVRFNDFGTYKRANRFKLDTVQFQSRG | failed
8 | MASYSLVESNSFGSENWCLKLQPSYKHGLLTGLSNGEIRLLDWSTGKSVQKIKASETAINDMKVIGSDFSAGHLVSSASIDAVKVFDIRTNDRIAQIQNEANSPFISLDSRHGLLACGTELQGIDAAVYIYDIRKWDTPLRSLIDSHHDDVTCIKFHPSDVNILLSGSTDGYTNIYDLKQDEEEDALHQVINYASIHSCGWLSPKRIFTLSHMETFAIHELNDKSDELKEPQPLDFGDVREIWNCDYVVDIYPGLIATGKTQENCGELCLLPFKDEKVDTENGIVIPHAHGDEVVRDIFIPAQHSNMLYSCGEDGCVKIWENKQGPLDIPENFWDYSKKMNVLGDDDREGSINLDEPLIIQKESVSTRPRKEKHKKAKKHSMKSRFKPY | failed
9 | MAIQFIVSNKYTAEVSKQLNDSQNWVLDSGIYYEDHNNHIVSSPINSATKPQNTREEWLWIPPHCQVVVCSTSSLKSFLGCKASEDLDRVFGDHPLWLDQLRPLSNLLENSLIDLLSRAPFEQSSKRNIQSMERGNPVMNWNVMQVEEEDTRGEQRVAASSSLSSSFDWNTFLRDRCGLSEEDVAYCFRKLSRFGRVSLSRLNEDSLLRMGINDPTVIAKLLIGITEEFS | failed
10 | MSFADLGLSDKVLQAVTTAGYTEPTPIQAQAIPHVLARRDVLGIAQTGTGKTAAFTLPMLTMLETGRARARMPRTLILEPTRELAAQVEENFERYGTNHKLNVALIIGGVSFADQDAKLTRGTDVLIATPGRLLDHFERGKLLLTGVELLVIDEADRMLDMGFIPDIERIVKMVPFTRQTLFFSATMPPEIERLADMFLHNPQRVEVARPASTATTIEQRLVATGAEGHEKRKVLRHLIRSASELQNGIIFCNRKRDVAQLQRSLTSHGFNAAALHGDMDQRARMAALDGFRSGEVPLLVASDVAARGLDIPAVSHVFNFDVPHHPEDYVHRIGRTGRAGRSGQAFTLASRSDERSLSAIESLIGQPIAWLDGDLASVSDEVEGDEPRRRRGSRRAKETKGGEETKSGGRSTERSAAPASESPRSENRSRGGRRPAAERSRADAPRRDPVREPEPVAVVPSAPPAPPRELAREPVRSAPERARGERRPPRRDEDGETPVGLGSHVPAFLLKPTGFGKSK | failed
11 | MSGKNEADSKDTGWEQIKDKGKIVVATSGTLYPTSYHDTDSGSDKLTGYEVEVVREAAKRLGLKVEFKEMGIDGMLTAVNSGQVDAAANDIDVTKDREEKFAFSTPYKYSYGTAIVRKDDLSGIKTLKDLKGKKAAGAATTVYMEVARKYGAKEVIYDNATNEQYLKDVANGRTDVILNDYYLQTLALAAFPDLNITIHPDIKYMPNKQALVMKKSNAALQKKMNEALKEMSKDGSLTKLSKQFFNKADVSKKIDADVQDVDLLEHHHHHH | not failed
12 | MTLRPDPTFYPSAKLAMEGPVEKLAFTLMLSPDASKPDGLAVVDVDPTSEKFGQIVHQLIMPNKGDEFHHFGWNACSSALSPLTGHAFLERRYLIIPGIRSSRIYIVDVKEPLKAKIHKIIEPEEVFAKTGYSRPHTIHCGPEGIYVSTLGGGGEDGTDGPPGIFILDCETFEILGRYEMDRGEQTKHYDFWWNLPRDYMVSSEWGLPPQFENGIVPEDLLSNKYGHKIHFWKLRDRKNVQTIDLGANHQMALEIRPAHDPSKDYGFCGVVVDTTNLQGAIFTWWQKDDGTFEAKKTITIDPVPADADDLPDLLKGFGACPPLVTDIDLSLDDKYLYVACWGLGEMHQYDVSDPMNPVLTGKVEIGGIVKKTPHPNGKTFGYGPQMVEISRDGKRVYWTNSLYSTWDEQFYPGDRGAAMVMANVGENGGLTLDKDFWVDFPAGYRSHQIRLEGGDCSTDSFCYPSV | failed
13 | MINPKVITRILANTDLKTKMRLAKVVPKLGKSDDVTKCMLCPNMCLHVCPVFDAERRLTVSPSVKSRLAYLGETEEAIYHCLPCDACKNACPMDISVNDNLRGYRGGERAMKAIERFEKSMRKVEVEPRDGKILYFPGCSTFESGLFDVTVEVLEKLGVDFAVKNLECCGMPYYELGLVDKFRGKISSLKDAAAKYEGVISNCPHCVHVMRENGIKAAHLLAVLKPVKIGGDVSYHDPCILARKLDIVEEPRRLLAEMGFVVHEPVFNGKDTHCCGYGGVYRFVVPEMAEKVAERRMEHFEHQIVTLCPSCRMALKAKDIVEIIAEGL | failed
14 | PNEKFCFEGFLPQKKGRMTKLKSLVDEHRTMVFYESPHRLLKTLTQFAEYFGPERQVSVSREISKIHEETVRGTLSELIEHFTATDPRGEIVIVLAGIDD | not failed
15 | GHHHHHHAIAENLYFQSSRNPEVLWAQRSDKVYLTVALPDAKDISVKCEPQGLFSFSALGAQGERFEFSLELYGKIMTEYRKNVGLRNIIFSIQKEERSWWTRLLKSEEKPAPYIKVDWNKWCDEDEEVNSETASDDESAFVNQDSESSDDDGLLYLPDLEKARNK | failed
